Experimental data: the nanobody polyreactivity screen of Harvey et al. (2022)

Test: yeast display, Sf9 membrane polyspecificity reagent, FACS + sequencing; frameworks hold sequencing errors
In short: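 Using colony PCR, genes from sorted yeast display clones were amplified, then sequenced on MiSeq at 2 × 250 and filtered by CDR length. The clones had been stained with 10% biotinylated, detergent-solubilized Sf9 membrane reagent for 1 hour at 4 °C and sorted by FACS into low and high (top ~1%) gates on anti-HA and streptavidin fluorescence. Polyreactivity labels come from the gate of origin.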

Sequence	polyreactivity (PSR sort gate)
QVQLVESGGGLVQAGGSLRLSCAASGSTFGHYAMGWYRQAPGKERELVAAISWSGASTYYADSVKGRFTISRDNAKNTVYLQMNSLKPEDTAVYYCAAESYRQTYYVGDGYEDDYWGQGTQVTVSS	low polyreactivity
QVQLVESGGGLDQAGGSLRLSCADSGSIFYVYTMGWYRQAPGKERELVAAITSGDGTYYADSVKGRFTISRDNAKSTVYLQMNSLKPEDTAVYYCNADESAYWKLRHGLGSDSWGQGTQVTVSS	low polyreactivity
QVQLVESGGGLVQAGGSLRLSCAASGSTFSANPMGWYRQAPGKERELVASISRRGGSTYYADSVKGRFTISRDNAKNTVYLQMNNLKPEDTAVYYCAAYYEYRRDYWGQGTQVTVSS	high polyreactivity
QVQLVESGGGLVQAGGSLRLSCAASGITFYYYAKGWYRQAPGKERELVSAISFRGGSTYYADSVKGRFTISRDNAKNSVYLQMNSLKPEDTAVYYCAAETSRSWYTWVSYDYWGQGTQVNVSS	high polyreactivity
QVQLVESGGGLVQAGGSLRLSCAPSGSIFWYYCKGWYRQAPGKERELVAAISSGGSTNYADSVKGRFAISRDNAKNTVYLQMNSLKAEDTAVYYCAVRFTFPRYDYWGQGTQVTVSS	high polyreactivity
QVQLVESGGGLVQAGGSLRLSCAASGFIYDKYVMGWSRQAPGKERQLVAAISSGGSTYYADSVKGRFTISRDNAKNTVYLQMNSLKPEDTAVYYCNAGGFWPWVYGYDSWGQGTQVTVSS	high polyreactivity
QVQLVESGGGLVQAGGSLRLSCAASGLTLYRYTMGWYRQAPGKERELVAGISRGGSTYYADSVKGRFTISRDNAKNTVYLQMNSLKPEDTAVYYCAAYYGGHYYAYSYDYWGQGTQVTVSS	high polyreactivity
LVQLQESGGGLVQAGGSLRLSCAASGTISQGGYMGWYRQAPGKERELVASINVGGSTNYADSVKGRFTISRDNAKNTVYLQMNSLKPEDNAVYYCAVWGRNRLQLSYWGQGTQVTVSS	low polyreactivity
QVQLVESGGGLVQAGGSLRLSCAASGSTFWFNAMGWYRQAPGKEREFVAAITWRGGSTYYSDSVKGRFTISRDNAKNTVYLQMNSLKPEDTAVYYCAAVTAYYYRRTYEYWGQGTQVTVSS	high polyreactivity
QEQLQDSGGGLVQAGGSLRLSCAASGYISSLAAMGWYRQAPGKERDLVAGNDLGTITNYADSVKGRLTISRDNAKNNVYLQMNSLKPEDTEVYYCAKYRWYGVYWGQGTHVTVSS	low polyreactivity
QVQLVESGGRLVQAGGSLRLSCAAYGSTFQVNAMGWYRQAPGKERELVAAISRGGGSTYYADSVKGRFTISRDNAKNTVYLQMNSLKPEETAVYYCAAVYYRRISQGDTQTYYQYNYWGQGTQVTVSS	high polyreactivity
QVQLVESGGGLVQAGGSLRLSCAASGSIFYGYTMGWSRQAPGKEREFVAAITGSGGSTYYADSVKGRFTISRDTPKNTVYVQMNTLKPEDTAVYYCAARRYVNRRYDYWGQGTQVTVSS	high polyreactivity
QVQLVESGGGLVQAGGSLRLSCAASGSIFPSYSMGWYRQAPGKERELVAVISVSGGRTYYADSVKGRFTISRDNAKNTVYLQMKSLKPEDTAVYYCAKDRPQEYDYWGQGTQVTVSS	low polyreactivity
QVQLVESGGGLVQAGGSLRLSCAASGRTFTYNTMGWYRQAPGKERELVAAISSRGGRTYYADSVKGRFTISRDNAKNTVYLQMNSLKPEDTAVYYCNADYRYPQYYHRTWIRYDYWGQGTQVTVSS	high polyreactivity
QVQLVESGGRLVQAGGSLRLSCAASGSTIYPNAMGWYRPAPGTERELVAGITTIGGSTYYADSVKGRFTISRDNAKNTVYLQMNSLKPEDTAVYYCAARWTFSTWIGFDYWGQGTQVTVSS	low polyreactivity
QVQLVESGGGLVQAGGSLRLICAASGFTFARYAMGWYRQAPGKERELVAAITSAGSTSYADSVKGRFTISRDNAKNTVYLQMNSLKPEDTAVYYCAAPFTVRYNYWGQGTKVTVSS	high polyreactivity
QVQLVESGGGLVQAGGSLRLSCAASGLIFKSYAMGWYRQAPGKERELVAAITWSGGRTYYADSVKGRFTISRDNAKNTVYLQMNSLKPEDTAVYYCAGREYLPPYYYWGQGTQVTVSS	high polyreactivity
QVQLVESGGGLVQAGGSLRLSCAASGRTFPRNGMGWYRPAPGQERELVAAIRYSGGSTYYADSVKGRFTISRDNAKNTVYLQMNSLKPEDTAVYYCAAEYRRALGVDYWGQGTQVTVSS	high polyreactivity
QVQLVESGGGLVQAGGSLRLSCAASGFTFARYVMGWSRQAPGKERELVAGITYRVGSTYYADSVKGRFSISRDNAKNTVYLQMNSLKPEDTAVYYCAAYLSTGYYYWGQGTQVTVSS	high polyreactivity
QVHLVESGGGLVQAGGSLRLSCAASGFTFNLYAMGWYRQAPGQERELVAAINSSGGTYYADSVKGRFTLSRDNAKNTVYLQMNSLTAEDTAVYYCAADFPYTPWSYHHHVWSPDFVYWGQGTQVTVSS	low polyreactivity
QVQLVESGGGLVQAGGSLRLSCAASGRIFRYNAMGWYRQAPGKEREFVAAISWSGDRTYYADSVKGRFTISRDNAKNTGYLQMNSLKTEDTAVYYCADVPATSYPRRYVYAYYYWGQGTQVTVSS	high polyreactivity
QVQLVESGGGLVQAGGSLRLSCAASGRTFWYYTMGWYRQAPGKEREFVAAISYSAGNTYYADSVKGRFTISRDNAKNTVYLQMNSLKPEDTAVYYCAVQRGYRSNAYDYWGQGTQVTVSS	high polyreactivity

Sequence	polyreactivity (PSR sort gate)
QVQLVESGGGLVQAGGSLRLSCAASGFISPPYAMGWYRQAPGKERELVAAIRSSGGSTYYADSVKGRFTISRDNAKNTVYLQMNSLKPEDTAVYYCNADWIYISSYGWYSYDYWGQGTQVTLSS	high polyreactivity
QVQLVESGGGLVQAGGSLRLSCAASGYIFLVYAMGRSRHAPRKERELVASITRGTRTYYADSVKGRFTISRDNAKNTVYLQMNILKPEDSAVYYCAASQNIRDWFRFGYGSWGQGTQVTVSS	low polyreactivity
QVQLVESGGGLVQAGGSLRLSCAASGRTFNPYVMGWYRQAPGKERELVARIRGSGTSTYYADSVKGRFTISRDNAKNTVYLHMNSLKPEDTAVYYCAAAQSKYSFYWGDYYYWGQGTQVTVSS	high polyreactivity
QVQLVESGGGLVQAGGSLRLSCAASGISFVYYAMGWYRQAPGKERELVAAITSDGGSTYYADSVKGRFTISRDNAKNTVYLQMNSLKPEDTAVYYCAAEWTSWSWWYGWYEFDYWGQGTQVTVSS	high polyreactivity
QVQLVESGGGLVQAGGSLRLSCAASGSTFGKYAMGWYRQAPGKERELVATITVSGGNTNYADSVKGRFTISRDNAKNTVYLQMNSLKPEDTAVYYCAARNYVAGHKYIMNYWGQGTQVNVSS	low polyreactivity
QVQIVESGGGLVQAGGSRRLSCAASGIIFYVNVMGWYRQAPGKERELVASNDGSGDTTYYADSVKGRFTISRDNAKNTVYLQMNSLKPEDTAVYYCAADKYSFWSYYPDDDYIYDYWGQGNQVTVSS	low polyreactivity
QVQLVESGGGLVQAGGSLRLICAASGSTFYPNAIGWYRQAPGKERELVAAISYTGGRTYYADSVKGRFTISRDNAKNTVYLQMNSLKPEDTAVYYCAVLVVGSTTQDEPYFCGVEHDYWGQGTQVTVSS	low polyreactivity
QVQLVESGGGLVQAGGSLRLSCAASGFTFAGYAMGWYRQAPGKERELVAGIRSSGARTYYADSVKGRFTISRDNAKNTVYLQMNSLKPEDTAVYYCAKTDGFYRGYGYWGQGTQVTVSS	low polyreactivity
QVQLVESGGGLVQAGGSLRLSCAASGSTFVHYGMGWYRQAPGKERELVAAISYSGGSTSYADSVKGRFTISRDNAKNTVYLQMNSLKPEDTAVYYCATVRKRRYDYWGQGTQVTVSS	low polyreactivity
QVQLVESGGGLVQAGGSLRLSCAASGRIFKCYAMGWYRQAPGKERELVAAISSGGRTYYADSVKGRFTISRDNAKNTVYLQMNSLKPEDTAVYYCAALQRTGPYAGSSGYWGQGSQVTVSS	high polyreactivity
QVQLVESGGGLVQAGRSLRLSCAASGRIFGWYAMGWYRQAPGKERELVAAIRWSGGSTYADSVKGRFTISRDNAKNTVYLQMNSLKPEDTAVYYCAALQRTGPYAGSSGYWGQGTQVTVSS	high polyreactivity
QVQLVESGGGLVQAGGSLRLSCAASGSIFDGNDMGWYRQAPGKEREKVAAITIGDASRFYADSVKGRFTISRDNAKNTVYFQMNRLKPEDTAVYYCAADRPGLEDDPIYDYWGQGTQVTVSS	low polyreactivity
QVQLVESGGGLVQAGGSLRLSCAASGFTFFIYVMGWYRQAPGKEREFVAAISSSGDSTYYADSVKGRFTISRDNAKNTVYLQMNSLKPEDTAVYYCAADRIRDLEFDYWGQGTQVTVSS	low polyreactivity
QLQLVESGGGLVQAGGSLRLSSAASGRTFRWNAMGWYRQAPGKERELVAAISSGGSTYYADSVKGRFTISRDNAKNTVYLQMNSLKPEDTAVYYCAKTSFKYRWSYPVISMDYWGQGTQVTVSS	high polyreactivity
QVQLVESGGGLVQAGGSLRLSCAASGRIFYYNAMGWYRQAPGKERELVAAISWDGGSTYYADSVKGRFTISRDNAKNTVYLQMNSLKAEDTAVYYCAVDLYGTWYPTWFNYWGQGTQVTVSS	low polyreactivity
QVQLVESGGGLVQSGGSLRLSCAASGSIFWYNARGWYRQAPGKERELVAAINGGGRTYYADSVKGPFTISRDNAKNTVYLQMNSLKPEDTAVYYCAVDPISQGHMDYGGQGTQVTVSS	low polyreactivity
QVQHVESGGGLVQAGGSLRLSCAASGFTFTRYAMGWYRQAPGKERELVAAISRGGTTYADSVKGRFTISRDNAKNTVYLQMNSLKPEDTAVYYCNRLRYGYPQEFGYWGQGTQVTVSS	high polyreactivity
QVQLVESGGGLVQAGGSLRLSCAASGRIFVVYAMGWYRQAPGKERELVAAITGGGRTNYADSVKGRFTISRDNAKNTVYLQKNSLKPGDSAVYYCAAGTRSDARRYYYWGQGTQVTVSS	low polyreactivity
QVQLVESGGGLVQAGGSLRLSCAASGRIFRLYAMGWYRQAPGKERELVASISKSGGSTYYADSVKGRFTISRDNAKNTVYLQMNSLKPADSAVYYCAADYRTHGGYEGTFDYWGQGTQVTVSS	low polyreactivity
QVNLVESGGGLVQAGGSLRLSCAASGSIFSKNAMGWYRQAPGRERELVAAITSGASTNYADSVKGRFTISRDNAKNTVYLQMNSLKPEDTAVYYCASKRNGFWYGYWGQGTHVTVSS	low polyreactivity
QVQLVESGGGLVQAGGSLRLTCAASGFTFFVYAMGWYRQAPGKERELVASITFRSGTTYYADSVKGRFTISRDNAKNTVYLQMNSLKPEDTAVYYCAADSRRSSRGYGYYYWGQGTQVTVSS	high polyreactivity
